Source: patent US9273304B2, “Inactivation method” (Thermo Fisher Scientific Baltics UAB, priority 2006, dated 2016)

Columns and labels:
Type in all cases: biochemical
[1] = biological target: Taq DNA polymerase (Thermus aquaticus, UniProt P19821); test: Reactivation of the modified Taq DNA polymerase by pre-incubation, activity measured at 50° C.
Procedure: The activity of modified Taq DNA polymerase was assayed as described in the Example 2. The enzyme was pre-incubated at different temperatures in the pre-heating buffer (see Example 2), its activity was measured at 50° C. in the reaction buffer of the following composition: 50 mM Tris (pH 8.4 at 25° C.), 10 mM KCl, 5 mM (NH4)2SO4 and 2 mM MgCl2. The activity of the modified DNA polymerase was normalized the activity of the unmodified one.

[2] = system: CFTR gene or insulin gene, human genome DNA as template; test: PCR specificity and efficiency, mixtures set up at room temperature (CFTR and insulin gene fragments)
Procedure: Sets of PCR reactions were carried out in the Mastercycle (Eppendorf). The reactions performed using 2 units of both the unmodified and the modified enzymes. Composition of the buffer used in the experiments with the modified Taq DNA polymerase was described in the Example 7. The unmodified Taq DNA was tested in the buffer of the following compositions: 75 mM Tris-HCl (pH 8.8 at 25° C.), 20 mM (NH4)SO4, 0.01% Tween20. Both buffers were supplemented with 2 mM MgCl2, 0.2 mM dNTP, 0.5 μm of each PCR primer and human DNA (100 ng/50 μl). For amplification of 950 by DNA fragment of the CFTR gene, the same set of PCR primers was used as described in the Example 8. A 400 bp fragment of the insulin gene was amplified with the following set of PCR primers: […]
The components of PCR were mixed at room temperature and the reactions were performed using the following cycling profiles: • 1. For the 950 bp amplicon: 95° C.—5 min; (95° C.—[…], 50° C.—0.5 min, 72° C.—1 min)—40 cycles; 72° C.—7 min. • 2. For the 400 bp amplicon: 95° C.—5 min; (95° C.—0.5 min, 65° C.—0.5 min, 72° C.—1 min)—40 cycles; 72° C.—7 min.
After completion of PCR, the samples were mixed with aliquots (10 μl) of the 6× MassRuller™ Loading Dye (Fermentas), and the samples were analyzed by gel electrophoresis in 1.7% agarose. The Gene Ruler™ 100 bp DNA Ladder Plus (Fermentas) was used for evaluation of the amplicon size. Electrophoresis was performed in the TBE buffer (89 mM Tris, 89 mM H3BO3, and 1 mM EDTA) at 5 V/cm for 75 min. After completion of electrophoresis, gels were stained with ethidium bromide (0.5 μg/ml). Then, gels were destained in MiliQ-quality water for 20 minutes. DNA bands were visualized under UV.

[3] = system: CFTR gene / insulin gene, human DNA; test: PCR comparison with commercial hot-start Taq DNA polymerases (sensitivity, Fast PCR, extension time)
Procedure: Sets of PCR reactions were carried out in the Mastercycler (Eppendorf). The reactions were carried out with the following amounts of DNA polymerases: 0.3125 activity units, 0.625 activity units, 1.25 activity units, and 2.5 activity units. These sets of PCR were performed under conditions optimal for each DNA polymerase. The buffers for both the modified DNA polymerase of the current invention and the unmodified DNA polymerase were described in the Examples 7 and 11, while the buffers for the commercial DNA polymerases were those recommended by the vendors. All experiments were performed in the presence of 0.2 mM dNTP, 0.5 μM of each primers and human DNA (100 ng/50 μl). The PCR primers for amplification of the CFTR gene were described in the Example 8.
The PCR components were mixed at room temperature and the reaction was carried using the following cycling profile: 95° C.—4 min; (95° C.—0.5 min, 50° C.—0.5 min, 72° C.—1 min)—40 cycles; 72° C.—7 min, with the exception of the experiments with the HotStarTaq DNA polymerase, were 15 min pre-incubation at 95° C. was used, as recommended by the vendor.
Amplifications and analysis of reaction products were performed as described in the Example 12. The 1.25 activity units of each polymerase were used in the PCR. The following amounts of human DNA were used as templates in the PCR: 0.1 ng, 1 ng, 10 ng, and 100 ng.
Amplifications and analysis of PCR products were performed as described in the Example 12. The 1.25 activity units of each polymerase were used in the PCR. The set of PCR reactions was carried out at 20, 25, 30, 35 and 40 thermal cycles. respectively.
Sets of PCR reactions were carried out in the GeneAmp® PCR System 9700 (Applied Biosystems). The reactions were carried out with 1 activity unit of DNA polymerases. These sets of PCR reactions were performed in 20 μl of the buffers optimal for each. DNA polymerase. The buffers for the modified Tag polymerase and the unmodified Taq DNA polymerases were described in the Examples 7 and 11, while the buffers for the commercial DNA polymerases were those recommended by the vendors. The following commercial DNA polymerases were chosen for comparison: the FastStart Taq DNA polymerase (Roche), the AmpliTaq Gold DNA polymerase (Applied Biosystems), and the HotStarTaq DNA polymerase (Qiagen). All experiments were performed in the presence of 0.2 mM dNTP, 0.5 μM of each PCR primer and human DNA (40 ng/20 μl). The following primers were used for amplification of the insulin gene: […]
The PCR components were mixed in thin-walled PCR tubes on ice and the 500 bp amplicon was generated using the following reaction profile: 95° C.—30 s; (95° C.—0 s, 62° C.—12 s)—30 cycles; 72° C.—10 s.
Amplifications and analysis of PCR products were performed as described in the Example 12. […]

Taq DNA polymerase, sequence (P19821 whole entry): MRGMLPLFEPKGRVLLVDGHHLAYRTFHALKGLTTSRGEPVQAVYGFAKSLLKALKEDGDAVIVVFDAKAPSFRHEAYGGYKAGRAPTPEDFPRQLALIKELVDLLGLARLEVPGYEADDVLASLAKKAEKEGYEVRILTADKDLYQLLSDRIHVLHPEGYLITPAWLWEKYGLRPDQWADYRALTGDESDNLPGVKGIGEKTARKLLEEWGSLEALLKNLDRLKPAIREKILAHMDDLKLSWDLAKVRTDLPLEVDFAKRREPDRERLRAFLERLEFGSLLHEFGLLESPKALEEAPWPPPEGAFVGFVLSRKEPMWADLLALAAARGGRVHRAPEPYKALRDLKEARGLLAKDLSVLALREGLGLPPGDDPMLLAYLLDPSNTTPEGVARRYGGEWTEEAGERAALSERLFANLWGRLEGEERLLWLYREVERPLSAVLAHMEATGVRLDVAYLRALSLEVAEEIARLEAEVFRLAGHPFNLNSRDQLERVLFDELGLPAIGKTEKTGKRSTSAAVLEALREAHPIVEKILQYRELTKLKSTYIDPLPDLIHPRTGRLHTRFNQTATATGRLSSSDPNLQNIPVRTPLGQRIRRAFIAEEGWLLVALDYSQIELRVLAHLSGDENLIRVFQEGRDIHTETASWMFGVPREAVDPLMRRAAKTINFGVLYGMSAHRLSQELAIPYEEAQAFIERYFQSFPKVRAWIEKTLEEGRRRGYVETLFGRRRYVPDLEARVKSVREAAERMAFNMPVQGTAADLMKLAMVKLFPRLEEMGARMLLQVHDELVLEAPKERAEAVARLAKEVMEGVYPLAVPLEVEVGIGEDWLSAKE

## Taq DNA polymerase modified with N-etoxycarbonyl-2,3-dimethylmaleinimide: Recombinant Taq DNA polymerase reversibly inactivated by reaction with N-ethoxycarbonyl-2,3-dimethylmaleinimide in aqueous solution (preferred molar ratio 1/110)
[1]; incubation time at 95° C. 0 min
  Activity at 50° C. (%): ~0%
[1]; incubation time at 95° C. 0.5 min, listed as modified Taq DNA polymerase
  Activity at 50° C. (%): ~60%
[1]; incubation time at 95° C. 0.5 min, listed as modified enzyme
  Activity at 50° C. (%): ~60%
[1]; incubation time at 95° C. 1 min, listed as modified Taq DNA polymerase
  Activity at 50° C. (%): ~90%
[1]; incubation time at 95° C. 1 min, listed as modified enzyme
  Activity at 50° C. (%): ~90%
[1]; incubation time at 95° C. 1.5 min
  Activity at 50° C. (%): ~90%
[1]; incubation time at 95° C. 2.0 min
  Activity at 50° C. (%): ~100%
[1]; incubation time at 95° C. 3.0 min
  Activity at 50° C. (%): ~100%
[1]; preheated at 90° C. for several minutes, FIG. 8
  reactivation by preheating at 90° C.: regained full activity
[2]; CFTR and insulin gene fragments, PCR set up at room temperature, FIG. 10
  yield of unspecific PCR byproducts versus unmodified DNA polymerase: lesser yield
[2]; insulin gene 400 bp fragment
  yield of the byproducts caused by the primer dimerization versus unmodified DNA polymerase: lower
  yield of the insulin amplicon versus unmodified DNA polymerase: higher yield
[3]; FIG. 14
  performance in the “Fast PCR” application, compared with DNA polymerases from other vendors: superior performance
[3]; FIG. 15
  primer extension time, compared with DNA polymerases from other vendors: shorter
[3]; versus HotStarTaq, AmpliTaq Gold, FastStart Taq, FIG. 11
  PCR sensitivity regarding the enzyme concentration, compared with DNA polymerases from other vendors: higher sensitivity
[3]; versus HotStarTaq, AmpliTaq Gold, FastStart Taq, FIG. 12
  PCR sensitivity regarding the target DNA concentration, compared with DNA polymerases from other vendors: higher sensitivity
